These results are taken from patent publication US20240239890A1 (Chugai, published 2024).

The assay concerns the target T1, Human RNF43 extracellular domain (amino acids 1-190) with a Flag tag on its C terminus (human, UniProt Q68DV7 24-190).
T1 construct: also called recombinant human RNF43; human RNF43 ECD
T1 sequence: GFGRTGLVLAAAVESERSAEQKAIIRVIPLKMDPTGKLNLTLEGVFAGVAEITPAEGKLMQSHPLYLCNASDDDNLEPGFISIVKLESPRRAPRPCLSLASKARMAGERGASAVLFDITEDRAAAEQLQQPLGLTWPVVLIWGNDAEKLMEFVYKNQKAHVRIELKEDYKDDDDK
The experiment in a line: SPR, Biacore T200, antibody captured by anti-human Fc, RNF43 as analyte, pH 7.4, 25 C. How it is done: The affinity of the anti-RNF43 monospecific antibodies towards human RNF43 at pH 7.4 was determined at 25 degrees C. using the Biacore T200 instrument (GE Healthcare). Anti-human Fc (GE Healthcare) was immobilized onto all flow cells of a CM4 sensor chip using an amine coupling kit (GE Healthcare). All antibodies and analytes were prepared in ACES at pH 7.4 containing 20 mM ACES, 150 mM NaCl, 0.05% Tween 20, 0.005% NaN₃. Each antibody was captured onto the sensor surface by anti-human Fc. Antibody capture levels were aimed at 312 resonance unit (RU). Recombinant human RNF43 was injected at 200 nM, 50 nM, and 12.5 nM prepared by a four-fold serial dilution, followed by dissociation. The sensor surface was regenerated each cycle with 3M MgCl2. Binding affinity was determined by processing and fitting the data to a 1:1 binding model using the Biacore T200 Evaluation software, version 2.0 (GE Healthcare).
(Surface plasmon resonance follows binding to a sensor surface in real time, without labels.)

B1: RNN0276oo (antibody, human IgG1, kappa, N297A, V domains shown)
VH: QSVEESGGRLVTPGTPLTLTCTVSGFSLSSYAMNWVRQAPGKGLEWIGVIGSSGRTYYASWAKGRFTSSKTSTTVVLKITSPTTEDTATYFCARGPYDSYGDGGVTGDLWGPGTLVTVSS
VL: AQVLTQTPSPVSAAVGGTVTINCQSSQSVYNNNNLAWYQQKPGQPPKLLIYRASTLASGVPSRFKGSGSGTQFTLTISGVQCEDAATYYCQGGYDCSSADCDTFGGGTKVEIKR
notes: Rabbit variable regions recombined with BS03aHis heavy-chain constant region and hk0MC light-chain constant region; also called anti-RNF43 monospecific antibody
For orientation: Kd means the equilibrium constant for the complex coming apart. A high value points to lower affinity. A word on the koff: it is the rate constant with which the complex falls apart. Read a low koff as slow dissociation. As a reminder, the kon is the second-order rate constant of association. Molecule B1 displayed a Kd of 117 nM, a koff of 0.0227 s⁻¹ and a kon of 193000 M⁻¹ s⁻¹.
